The text below walks through data of publication PMC3287977.

Experiment [1] addresses A. fulgidus HypA, tag-free (Archaeoglobus fulgidus) (UniProt O28904). In words: SEC-MALS; equimolar AfHypA and AfHypB preloaded with GDP (monomeric form); Superdex-75 HR10/30, 50 mM Tris pH 7.5, 0.2 M NaCl, 1 mM TCEP, room temperature; peaks checked by SDS-PAGE.
Experiment [2] has as its target A. fulgidus HypB, tag-free (Archaeoglobus fulgidus). In words: SEC-MALS; AfHypB (0.5 mM) preloaded with 5 mM GMPPNP and 1 mM NiCl2, excess removed; Superdex-75 HR10/30, 50 mM Tris pH 7.5, 0.2 M NaCl, 5 mM MgCl2, 1 mM TCEP. Background: Size exclusion chromatography separates by hydrodynamic size, large species first.

Sequence of UniProt O28904 (O28904 whole entry): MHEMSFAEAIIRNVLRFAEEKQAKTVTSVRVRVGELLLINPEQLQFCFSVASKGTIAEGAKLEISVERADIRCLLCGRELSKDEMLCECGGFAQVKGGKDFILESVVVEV

As for “A. fulgidus HypB, tag-free (natural protein)”, the results for the stoichiometry N in experiment [1] and in experiment [2] were 1 and 2, respectively.
